T1: Human Topoisomerase I (Homo sapiens, UniProt P11387)
T1 construct: purchased Topogen
T1 sequence (P11387 1-765): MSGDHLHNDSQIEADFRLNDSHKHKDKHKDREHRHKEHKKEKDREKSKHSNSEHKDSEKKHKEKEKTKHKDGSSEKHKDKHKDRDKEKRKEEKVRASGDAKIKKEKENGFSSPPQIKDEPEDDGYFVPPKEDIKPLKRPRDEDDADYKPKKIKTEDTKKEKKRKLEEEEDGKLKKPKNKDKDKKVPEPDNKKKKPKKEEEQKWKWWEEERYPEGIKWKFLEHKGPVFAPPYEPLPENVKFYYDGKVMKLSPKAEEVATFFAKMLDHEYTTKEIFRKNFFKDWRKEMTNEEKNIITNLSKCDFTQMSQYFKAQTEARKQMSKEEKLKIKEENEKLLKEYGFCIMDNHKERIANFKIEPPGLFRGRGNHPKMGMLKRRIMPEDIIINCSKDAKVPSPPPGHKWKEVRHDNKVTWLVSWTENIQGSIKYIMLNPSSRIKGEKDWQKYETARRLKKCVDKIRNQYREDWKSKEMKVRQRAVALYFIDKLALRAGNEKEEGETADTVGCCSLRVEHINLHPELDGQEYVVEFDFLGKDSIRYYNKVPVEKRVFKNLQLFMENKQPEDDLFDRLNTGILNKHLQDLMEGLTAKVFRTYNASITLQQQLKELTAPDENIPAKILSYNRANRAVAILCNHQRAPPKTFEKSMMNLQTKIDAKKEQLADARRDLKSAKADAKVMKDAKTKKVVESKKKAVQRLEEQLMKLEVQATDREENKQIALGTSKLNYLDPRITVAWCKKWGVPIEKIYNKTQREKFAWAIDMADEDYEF

B1: E2: rabbit derived anti-cNHL VL sdAb clone, SEQ. ID. 5 (antibody, listed as Oryctolagus cuniculus, V domains shown)
VL: ELDLTQTPPSLSASVGGTVTINCQASESISNYLAWYQQKPGQPPKLLIYGASNLESGVPSRFRGSGSGTEFTLTISDMKAEDAATFYCQSGYYTAGDLTFGAGTNVEIK
B2: A12: rabbit derived anti-cNHL VL sdAb clone, SEQ. ID. 1 (antibody, listed as Oryctolagus cuniculus, V domains shown)
VL: ELVMTQTPSSVSAAVGGTATIDCQSTKSVYNNNALSWYQQKPGQPPKLLIYRASTLTSGVPSRFSGSGSGTQFTLTINDVQCDDAATYYCQGGISGSSDAPFGGGTEVVVK
B3: E1: rabbit derived anti-cNHL VL sdAb clone, SEQ. ID. 4 (antibody, listed as Oryctolagus cuniculus, V domains shown)
VL: ELVMTQTPSPVSAAVGGTVTIACQSSQSVYSGTLLSWYQQKPGQSPKLLIHEASTLASGVPSRFKGSGSGTQFTLTISDLECADAATYYCLGGFDDDADNAFGGGTELEIL
B4: C8: rabbit derived anti-cNHL VL sdAb clone, SEQ. ID. 2 (antibody, listed as Oryctolagus cuniculus, V domains shown)
VL: ELVMTQTPSSVSAAVGGTVTINCRASEDIESYLAWYQQKPGQPPKRLIYGASNLASGVSSRFKGSGSGTDFTLTISDLECADAATYYCQCIVGGSTYGNVFGGGTELEIL
B5: B12: rabbit derived anti-cNHL VL sdAb clone, SEQ. ID. 6 (antibody, listed as Oryctolagus cuniculus, V domains shown)
VL: ELVLTQTPASVEAAVGGTVTIKCQASQSIGSYLAWYQQKPGQPPKLLIYGASTLASGVPSRFSGSRSDTQFSLTISDLECADAATYYCQGYYYSDSSSYVNTFGGGTEVVVK
B6: RG23: rabbit derived BBB targeting VL sdAb clone, SEQ. ID 44 to 48 series; ^99mTc(CO)3-labelled in Table 1 (antibody, listed as Oryctolagus cuniculus, V domains shown)
VL: ELVMTQTPASVSEPVGGTVTIKCQASQSIGNALAWYQQKPGQPPKLLIYGASNLESGVPSRFKGSGSGTEFTLTISDLECADAATYYCQSYYYSSSSSYGSYAFGGGTEVVVK
modifications: 99mTc(CO)3 label
B7: RG3: rabbit derived BBB targeting VL sdAb clone, SEQ. ID 44; ^99mTc(CO)3-labelled in Table 1 (antibody, listed as Oryctolagus cuniculus, V domains shown)
VL: ELVMTQTPSPVSAAMGGTVSISCQSSKSVANNNELSWYQQKPGQPPKLLIYEASKLASGVPSRFKGSGSGTQFTLTISDVQCDDAATYYCLGDYYSSSDNAFGGGTEVVVK
modifications: 99mTc(CO)3 radiolabel
B8: RG22: rabbit derived BBB targeting VL sdAb clone, SEQ. ID 44 to 48 series; ^99mTc(CO)3-labelled in Table 1 (antibody, listed as Oryctolagus cuniculus, V domains shown)
VL: ELVLTQTPASVEAAVGGTVTINCQASQSVYNNKNLAWYQQKPGQPPKLLIYRASTLASGVPSRFSGSGSGTQFTLTISGAQCDDAATYYCQGEFSCSSGDCIAFGGGTEVVVK
modifications: 99mTc(CO)3 label

Tested on: CLBL-1 cell extracts
Assay: ELISA screening of anti-cNHL VL sdAb clones
Assay type: binding, canine
Conditions: clone supernatants, CLBL-1 extracts
Description: After the phage display selection, in order to express and select the best anti-cNHL VL sdAbs, phagemid DNA derived from the in vivo output selection was cloned into a PT7-PL vector and transformed into an E. coli strain BL21. Then, individual clones were auto induced, and the supernatant tested in ELISA assays against CLBL-1 and Jurkat cell extracts. To select the best lead candidates, three parameters were evaluated: binding against cNHL, expression yields, and unspecific binding. […] After selection, to characterize the selected clones, the 43 best lead candidates were analysed by sanger sequencing (FIG. 6B). To get further insights of the enriched sequences during the in vivo phage display selection, we performed next generation sequencing (NGS) of the biopanning repertoires. NGS allows massive sequence analysis of the panning population, enabling a genomic assessment of the library diversity and frequency of each clone. Two samples were sequenced: biopanning from the CLBL-1 tumour models and initial immune VL sdAb cNHL library (FIG. 7). Upon bioinformatic analysis of the NGS data, we were able to determine the diversity of each sample and identify the most represented clones. A total of 34880 sequences were obtained for the biopanning from the CLBL-1 tumours. The NHL library obtained a total of 48864 sequences. The number of singletons, consisting of the sequences with a single occurrence, varied between samples, ranging from 76.8% in the library, and 33.3% in the in vivo biopanning from the CLBL-1. Through the comparison of the sequence prevalence between the biopannings and the library, we were able to verify that the number of occurrences in each sequence was higher in the biopanning clones. […] By comparing ELISA data, sanger sequencing and NGS analysis, the six best clones (A12, C8, C5, E1, E2, and B12) were produced and purified. Due to its binding characteristics and production properties, C5 sdAb clone was chosen to be thoroughly characterized and used in the development of the proposed ADC.
To express and select anti-NHL-sdAbs, phagemid DNA encoding selected anti-cNHL sdAbs was cloned into PT7-PL (PT7-peptide leader) vector and transformed into E. coli strain BL21. Individual colonies were inoculated in 100 μl of Super Broth (SB) medium containing Overnight Express™ Autoinduction System (Novagen®) and 100 μg/ml of ampicillin and incubated overnight at 30° C. Next day, 40 μl of BugBuster (Roche) containing anti-protease cocktail-EDTA free inhibitors (Roche) were added and incubated for 30 min at 4° C. Then, plates were centrifuged at 1200 rpm and the supernatant was tested in ELISA assays. Three different conditions were assessed: binding to the sdAbs to the antigen, expression level and unspecific binding. After coating the wells with CLBL-1 cell extracts or Raji cell extracts for 1 h at 37° C., wells were blocked with 3% BSA in PBS. Then, wells were washed with PBS and clones were added and incubated for 1 h, at 37° C. Next, plates were washed and incubated with anti-HA HRP antibody (Roche). Finally, after 1 h incubation, plates were washed and ABTS (Roche) was added and optical density at 405 nm was measured at different time points. To evaluate the expression level, the same protocol was applied, excluding antigen coating.
For unspecific binding, antigen was replaced by 3% BSA. Rabbit sera and anti-CD20 antibody were used as positive controls. BL21 cell extracts were used as negative controls. In the end, the ten best individual clones were sequenced at Eurofins company. Sequence analysis was performed using the Vector Nti software (Invitrogen). The antibody frameworks, CDRs and the amino acid numbering and sequences followed the rules described by Kabat et al. (1991) Sequences of proteins of immunological interest. Bethesda, MD, U.S. Dept. of Health and Human Services, Public Health Service, National Institutes of Health. […]

**Q.** For B1, which “ELISA signal against NHL cells” value is on record?
**A.** best results

**Q.** How did the “ELISA signal against NHL cells” value turn out when B2 was run?
**A.** best results

**Q.** Which “ELISA signal against NHL cells” value does the source give for B3 here?
**A.** best results

**Q.** For B4, which “ELISA signal against NHL cells” value is on record?
**A.** best results

**Q.** Which “ELISA signal against NHL cells” value does the source give for B5 here?
**A.** best results

Tested on: bEnd.3 cell monolayer
Assay: In vitro BEB model translocation of sdAbs (western blot)
Assay type: in vitro ADME, mouse
Conditions: 15 μg sdAb at apex, 90 min, WB
Description: FIG. 16A 15 μg of each purified sdAb was added to the apex of the transwell and incubated for 90 min.
FIG. 16B Following incubation period, all volumes were collected from the apex and the base and analysed by WB with anti-HA antibody.
To determine the in vitro BEB translocation efficiency of the selected VL sdAb, 15 μg of each purified antibody was added to the apex of the transwell and incubated for 15 and 90 min. The incubation time and sdAb concentration were selected based on previous optimization assays (data not shown). Following incubation, the cells were washed once with PBS and three times with TB. Evaluation of the translocation efficiency of each VL sdAb was assessed by running […] of the recovered volume from the apex and the base on a 15% SDS-PAGE acrylamide gel followed by WB analysis with HRP-conjugated […] antibody at 1:3000 (Roche). As a positive control, 100 ng of each purified VL sdAb was used. The FC5 VHH was used as a positive control. The same procedure was performed to evaluate the BEB crossing properties of each purified rabbit serum, but the incubation was performed for 15 and 60 min and the detection was performed with goat-α anti-rabbit IgG-Fc specific HRP at 1:10,000. Chemiluminescence was detected using the Chemidoc XRS+System (Bio-rad).

**Q.** How did the “in vitro BEB translocation” value turn out when B6 was run?
**A.** increased in vitro BEB-crossing efficiency

**Q.** With B7 as the molecule, how does the “in vitro BEB translocation” value read?
**A.** increased in vitro BEB-crossing efficiency

**Q.** Which “in vitro BEB translocation” value does the source give for B8 here?
**A.** increased in vitro BEB-crossing efficiency

Molecular target: T1, Human Topoisomerase I
Assay: DNA Topo I activity assay (Human Topoisomerase I Assay Kit)
Assay type: biochemical
Conditions: 10 U Topo I, supercoiled DNA, agarose gel
Description: FIG. 11—Cytotoxic effects of C5-DAB-SN-38. To determine the effect of C5-DAB-SN-38 on CLBL-1 and Jurkat cells, a cell viability assay was performed using the WST-1 reagent. 6×10^4 cells were seeded and treated with increasing amounts of compound. After 48 h treatment, cell viability was assessed. […] B) On the other hand, ADC had no effect on Jurkat cells, proving the specificity of the ADC. C5 was used as control. Best-fit EC50 values of each formulation were calculated using GraphPad Prism software (version 9.2.0, San Diego, CA, USA) using the log (inhibitor) vs response (variable slope) function. D) Effects of C5-DAB-SN-38 on DNA TopoI activity. To evaluate the effects of C5-DAB-SN-38 on DNA Topo I, we evaluated its activity using the Human Topoisomerase I Assay Kit. After incubation of C5-DAB-SN-38 with 1× reaction buffer and 10 U of Topo I for 1 h at 37° C., the supercoiled DNA was added. To stop the reaction, stop loading buffer was added. DNA TopoI activity was visualized by 1% agarose gel electrophoresis […] with ethidium bromide. Relaxed DNA indicated TopoI activity while supercoiled DNA indicated an inhibition. […] Relaxed DNA and supercoiled DNA were used as positive/negative controls. C5 and SN-38 were also used as controls.
Topo I activity on VL-DAB-SN38 was determined using the Human Topoisomerase I Assay Kit (Topogen, CO, USA) according to the manufacturer's instructions. […]

**Q.** How did the “effect on DNA Topo I activity” value turn out when `CCc1c2c(nc3ccc(O)cc13)-c1cc3c(c(=O)n1C2)COC(=O)[C@]3(O)CC` [SN-38, reference compound] was run?
**A.** inhibited
